For assay [1], the target named is spre1_human SPRED1 (UniProt Q7Z699).
The target is the same in assay [2]. The source holds these as a separate data set.

spre1_human SPRED1, sequence (Q7Z699 whole entry): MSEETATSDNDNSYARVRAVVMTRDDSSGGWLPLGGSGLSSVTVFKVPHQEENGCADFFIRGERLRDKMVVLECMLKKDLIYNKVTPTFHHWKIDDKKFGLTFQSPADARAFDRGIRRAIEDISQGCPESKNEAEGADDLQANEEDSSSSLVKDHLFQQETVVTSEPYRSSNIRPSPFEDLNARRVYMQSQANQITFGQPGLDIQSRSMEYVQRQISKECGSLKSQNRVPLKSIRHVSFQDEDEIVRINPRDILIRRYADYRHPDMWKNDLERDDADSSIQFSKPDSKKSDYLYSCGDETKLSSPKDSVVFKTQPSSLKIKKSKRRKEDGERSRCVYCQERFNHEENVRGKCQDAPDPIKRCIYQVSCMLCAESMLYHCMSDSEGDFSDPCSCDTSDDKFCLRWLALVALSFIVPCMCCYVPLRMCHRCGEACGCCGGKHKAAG

For “Neurofibromin (Homo sapiens), P21359 R1204L”, in assay [1], the “effect of a mutation on the interaction” value is on record as “decreasing interaction strength”. On the same count and under the same terms, to “Neurofibromin (Homo sapiens), P21359 G1519E” belongs “with no effect”. On to “Neurofibromin (Homo sapiens), P21359 R1276P”, for which the “effect of a mutation on the interaction” value in assay [2] is given as “with no effect”.

As to “Neurofibromin (Homo sapiens), P21359 D1217G”, the “effect of a mutation on the interaction” value in assay [2] was “decreasing interaction strength”; in assay [1] it was “disrupting interaction strength”. As to “Neurofibromin (Homo sapiens), P21359 A1202S”, in assay [1], the “effect of a mutation on the interaction” value is “with no effect”. On the same count and under the same terms, then “Neurofibromin (Homo sapiens), P21359 R1204W”, with “decreasing interaction strength”. Consider “Neurofibromin (Homo sapiens), P21359 L1511P”, for which the “effect of a mutation on the interaction” value in assay [2] was “decreasing interaction strength”. With “Neurofibromin (Homo sapiens), P21359 L1208W”, the “effect of a mutation on the interaction” value in assay [1] is on record as “decreasing interaction strength”. On the same count and under the same terms, then “Neurofibromin (Homo sapiens), P21359 Q1515R”, with “with no effect”; and “Neurofibromin (Homo sapiens), P21359 L1211R”, with “with no effect”; and “Neurofibromin (Homo sapiens), P21359 R1204G”, with “with no effect”.

For the origin of these results see IntAct's records for PubMed 26635368.
